Source: paper PMC3665746

Biological target: palm-Mover-flag (not stated | rat)
Assay: plasma membrane recruitment assay in cells (immunofluorescence, line scans); Vero cells co-transfected with palm-Mover-flag and a myc- or GFP-tagged Mover construct; fixed after 24 h, stained against the tags; a cell is positive for recruitment when the fluorescence profiles co-peak in the cell periphery

Substance	percent of cells showing recruitment (percent of cells)
GFP-Mover 34–266 (domain or fragment)	71
GFP-Mover 52–266 (domain or fragment)	86
Mover-myc (natural protein)	94
Mover-GFP (natural protein)	61
GFP-Mover (natural protein)	94
